Measured values taken from FireProtDB (doi:10.1529/biophysj.106.101162).
Values joined by “and” are separate entries in the source; they are usually repeats but may differ in a detail not shown here. Equal entries are not always repeated.

Details: Thermus thermophilus, 20 °C, GdnHCl, CD, Sodium acetate 50 mM, reversible: Yes, whole UniProt chain shown

B1: Cytochrome c oxidase subunit 2 wild type, P98052 (protein)
chain: AYTLATHTAGVIPAGKLERVDPTTVRQEGPWADPAQAVVQTGPNQYTVYVLAFAFGYQPNPIEVPQGAEIVFKITSPDVIHGFHVEGTNINVEVLPGEVSTVRYTFKRPGEYRIICNQYCGLGHQNMFGTIVVKE
With B1 the unfolding free energy (pH 3.5) was 2.85 kcal/mol and 2.2 kcal/mol, the unfolding free energy (pH 4) was 3.15 kcal/mol and 2.61 kcal/mol and the unfolding free energy (pH 4.5) was 3.56 kcal/mol and 2.84 kcal/mol and 2.73 kcal/mol. The unfolding free energy (pH 5) was 6.38 kcal/mol and 6.69 kcal/mol and 4.15 kcal/mol, the unfolding free energy (pH 5.5) was 9.01 kcal/mol and the unfolding free energy (pH 6) was 15.9 kcal/mol and 13.2 kcal/mol and 5.97 kcal/mol. For the same protein, the unfolding free energy (pH 7) was 20.2 kcal/mol and 15.4 kcal/mol.
